# From PMC4947441
# B1: Ptb (phosphotransbutyrylase, LmPtb) (Listeria monocytogenes EGD-e) (protein)
# chain: MTKSRFFSDVAETSSFVFAVAGADDEVVLETIRLALKQKLGKFLLFGKKEDKTLTANESVTWIQTDTAEAAAQGAILAVKNKEADILVKGFIPTATLMHHVLKKENGLRTDQLLSQIAIFDIPTYHKPLLITDCAMNVAPKTKEKIAITENALAVAHQIGITNPKIALLSAVEEVTAKMPSTLEAQEVVQHFGNQISVSGPLALDVAISKEAALHKGITDSSAGEADILIAPNIETGNALYKSLVYFAGAKVGSAVVGAKVPIVISSRNDSPENKLASFILTVRLVEK
# Substrate: CCCC(=O)OP(=O)(O)O
# Test: purified protein
# Format: biochemical, Listeria monocytogenes
# Settings: 500 µM CoA, 100 mM Tris pH 7.5, 25 °C
protein,measurement,value
B1,Km,1040 µM
